Series [1] deals with NC(=O)c1ncn([C@@H]2O[C@H](COP(=O)(O)O)[C@@H](O)[C@H]2O)c1NC=O. The series can be described thus: purified protein. The format is biochemical, Archaeoglobus fulgidus. The conditions noted are these: 0.050 M Tris, pH 7.3, 50°C, MBP fusion.
Series [2] shares this test system. The series can be described thus: purified protein. The format is biochemical, Thermococcus kodakarensis. To be noted: 0.050 M Tris, pH 7.3, 50°C, MBP fusion.

As for “AF1811 (Archaeoglobus fulgidus PurH2) (Archaeoglobus fulgidus DSM 4304)”, in series [1], the Km (commonly the substrate concentration at which the rate is half of its maximum) was 7.8 ± 1.8 µM and the turnover number (kcat) – broadly, the maximal rate divided by the concentration of active sites – is 1.32 ± 0.14 s⁻¹.

“TK0430 (Thermococcus kodakarensis PurO) (Thermococcus kodakarensis KOD1)”: in series [2], the Michaelis-Menten constant (Km) amounted to 1.56 ± 0.39 µM and the kcat was found to be 0.48 ± 0.04 s⁻¹.

Values taken from article PMC6797443, “Experimental characterization of two archaeal inosine 5'-monophosphate cyclohydrolases” (PLoS ONE, 2019).
